Publication PMC9482650, “Quantitative fragmentomics allow affinity mapping of interactomes” (Nature Communications, 2022)
One block for each binder: values may come before it.

Tests used:
Experiment in all cases: holdup assay
Set-up in all cases: key: below the threshold = too weak to quantify, mostly under pKd 3.1 to 4
Conditions in all cases: plain residues with an end cap or a label only (N-terminal biotin on a linker: ttds)
APBA2_1, Q99767 = biological target: T1, APBA2_1, Q99767
T1 sequence (Q99767 563-664, limits assumed, looked up): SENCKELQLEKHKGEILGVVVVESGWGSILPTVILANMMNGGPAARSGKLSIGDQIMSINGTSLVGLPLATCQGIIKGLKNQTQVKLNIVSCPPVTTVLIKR

CARD11, Q9BXL7 = biological target: T2, CARD11, Q9BXL7
T2 sequence (Q9BXL7 662-765, limits assumed, looked up): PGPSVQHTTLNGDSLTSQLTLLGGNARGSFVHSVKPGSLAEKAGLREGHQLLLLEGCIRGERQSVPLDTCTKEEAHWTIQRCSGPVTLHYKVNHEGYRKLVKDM

DLG1_1, Q12959 = biological target: DLG1_1, Q12959
DLG1_3, Q12959 = biological target: DLG1_3, Q12959
DLG3_1, Q92796 = biological target: T3, DLG3_1, Q92796
T3 sequence (Q92796 125-227, limits assumed, looked up): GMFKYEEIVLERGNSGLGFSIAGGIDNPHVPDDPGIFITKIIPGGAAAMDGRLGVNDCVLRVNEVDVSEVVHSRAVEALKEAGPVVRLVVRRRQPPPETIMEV

DLG4_2, P78352 = biological target: DLG4_2, P78352
Sequence of DLG4_2, P78352 (P78352 155-259): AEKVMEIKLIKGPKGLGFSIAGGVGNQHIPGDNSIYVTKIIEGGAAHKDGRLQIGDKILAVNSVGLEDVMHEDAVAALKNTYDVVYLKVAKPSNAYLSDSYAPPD

FRMPD1, Q5SYB0 = biological target: T4, FRMPD1, Q5SYB0
T4 sequence (Q5SYB0 52-145, limits assumed, looked up): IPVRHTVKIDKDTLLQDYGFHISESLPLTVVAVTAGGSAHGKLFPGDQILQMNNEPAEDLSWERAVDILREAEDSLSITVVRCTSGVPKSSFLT

FRMPD2_1, Q68DX3 = biological target: FRMPD2_1, Q68DX3
Sequence of FRMPD2_1, Q68DX3 (Q68DX3 770-861): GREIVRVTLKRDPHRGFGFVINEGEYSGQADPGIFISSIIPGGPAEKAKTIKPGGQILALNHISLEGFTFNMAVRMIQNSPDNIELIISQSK

FRMPD2_3, Q68DX3 = biological target: FRMPD2_3, Q68DX3
Sequence of FRMPD2_3, Q68DX3 (Q68DX3 1073-1166): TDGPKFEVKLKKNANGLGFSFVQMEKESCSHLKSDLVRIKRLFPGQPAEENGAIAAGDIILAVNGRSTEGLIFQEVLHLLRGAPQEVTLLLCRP

GRASP, Q7Z6J2 = biological target: GRASP, Q7Z6J2
Sequence of GRASP, Q7Z6J2 (Q7Z6J2 96-193): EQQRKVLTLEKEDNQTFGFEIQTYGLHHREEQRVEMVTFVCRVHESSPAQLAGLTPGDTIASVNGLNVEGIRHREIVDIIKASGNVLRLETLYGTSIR

HTRA1, Q92743 = biological target: HTRA1, Q92743
Sequence of HTRA1, Q92743 (Q92743 360-477): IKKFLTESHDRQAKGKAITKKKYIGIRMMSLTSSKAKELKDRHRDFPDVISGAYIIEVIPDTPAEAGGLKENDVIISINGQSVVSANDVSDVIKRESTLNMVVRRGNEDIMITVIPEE

HTRA4, P83105 = biological target: T5, HTRA4, P83105
T5 sequence (P83105 378-476, limits assumed, looked up): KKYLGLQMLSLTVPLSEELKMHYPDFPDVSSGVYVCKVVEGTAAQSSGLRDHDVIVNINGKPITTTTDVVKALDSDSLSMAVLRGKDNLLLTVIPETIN

Inadl_10, Q8NI35 = biological target: Inadl_10, Q8NI35
Sequence of Inadl_10, Q8NI35 (Q8NI35 1673-1763): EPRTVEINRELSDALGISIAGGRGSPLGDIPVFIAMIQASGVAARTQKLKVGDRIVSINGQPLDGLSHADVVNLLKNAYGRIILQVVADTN

Inadl_5, Q8NI35 = biological target: Inadl_5, Q8NI35
Sequence of Inadl_5, Q8NI35 (Q8NI35 673-780): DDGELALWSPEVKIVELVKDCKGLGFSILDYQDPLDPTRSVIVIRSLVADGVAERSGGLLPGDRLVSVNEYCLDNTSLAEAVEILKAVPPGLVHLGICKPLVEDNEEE

LDB3, O75112 = biological target: LDB3, O75112
Sequence of LDB3, O75112 (O75112 1-94): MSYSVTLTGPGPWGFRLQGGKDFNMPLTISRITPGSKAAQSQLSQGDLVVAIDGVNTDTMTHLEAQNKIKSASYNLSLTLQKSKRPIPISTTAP

LIN7A, O14910 = biological target: T6, LIN7A, O14910
T6 sequence (O14910 103-200, limits assumed, looked up): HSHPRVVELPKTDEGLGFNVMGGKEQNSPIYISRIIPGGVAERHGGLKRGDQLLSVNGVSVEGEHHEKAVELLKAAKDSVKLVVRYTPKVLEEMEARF

LNX2_3, Q8N448 = biological target: T7, LNX2_3, Q8N448
T7 sequence (Q8N448 463-564, limits assumed, looked up): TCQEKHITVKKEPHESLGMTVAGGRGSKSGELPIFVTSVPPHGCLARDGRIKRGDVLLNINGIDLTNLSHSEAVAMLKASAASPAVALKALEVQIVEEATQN

MPP6, Q9NZW5 = biological target: T8, MPP6, Q9NZW5
T8 sequence (Q9NZW5 125-219, limits assumed, looked up): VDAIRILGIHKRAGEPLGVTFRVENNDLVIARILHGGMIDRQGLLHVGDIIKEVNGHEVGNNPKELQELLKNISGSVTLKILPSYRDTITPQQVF

NHERF3_4, Q5T2W1 = biological target: T9, NHERF3_4, Q5T2W1
T9 sequence (Q5T2W1 373-468, limits assumed, looked up): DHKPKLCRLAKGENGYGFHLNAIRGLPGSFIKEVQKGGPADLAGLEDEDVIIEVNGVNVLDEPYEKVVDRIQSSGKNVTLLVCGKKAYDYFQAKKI

NOS1, P29475 = biological target: NOS1, P29475
Sequence of NOS1, P29475 (P29475 9-101): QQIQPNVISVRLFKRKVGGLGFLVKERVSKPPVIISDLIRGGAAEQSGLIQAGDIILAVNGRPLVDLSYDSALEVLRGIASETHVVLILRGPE

PARD3B_1, Q8TEW8 = biological target: T10, PARD3B_1, Q8TEW8
T10 sequence (Q8TEW8 196-299, limits assumed, looked up): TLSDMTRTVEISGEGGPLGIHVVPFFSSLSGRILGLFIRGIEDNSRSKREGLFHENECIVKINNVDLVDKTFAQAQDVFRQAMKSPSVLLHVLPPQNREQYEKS

PARD3_3, Q8TEW0 = biological target: PARD3_3, Q8TEW0
Sequence of PARD3_3, Q8TEW0 (Q8TEW0 582-685): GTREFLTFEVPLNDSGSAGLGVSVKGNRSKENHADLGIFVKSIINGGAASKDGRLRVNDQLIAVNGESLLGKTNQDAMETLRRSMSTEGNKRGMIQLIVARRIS

PDZD2_2, O15018 = biological target: T11, PDZD2_2, O15018
T11 sequence (O15018 329-429, limits assumed, looked up): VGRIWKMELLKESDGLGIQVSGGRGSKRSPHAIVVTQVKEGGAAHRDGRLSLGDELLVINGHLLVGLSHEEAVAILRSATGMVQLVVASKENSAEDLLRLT

SCRIB_1, Q14160 = biological target: SCRIB_1, Q14160
Sequence of SCRIB_1, Q14160 (Q14160 718-814): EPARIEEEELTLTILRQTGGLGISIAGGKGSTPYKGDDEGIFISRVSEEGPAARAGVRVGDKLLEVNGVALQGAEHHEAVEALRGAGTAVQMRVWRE

SNTB1, Q13884 = biological target: T12, SNTB1, Q13884
T12 sequence (Q13884 107-205, limits assumed, looked up): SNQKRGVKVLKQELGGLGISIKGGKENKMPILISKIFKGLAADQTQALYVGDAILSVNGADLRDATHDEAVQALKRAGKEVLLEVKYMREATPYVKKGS

TJP1_3, Q07157 = biological target: TJP1_3, Q07157
Sequence of TJP1_3, Q07157 (Q07157 416-512): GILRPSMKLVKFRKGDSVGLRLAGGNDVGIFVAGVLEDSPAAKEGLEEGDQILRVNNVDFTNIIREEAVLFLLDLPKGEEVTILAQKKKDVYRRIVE

pKd (APBA2_1, Q99767): below the threshold | pKd (CARD11, Q9BXL7): below the threshold | pKd (DLG1_1, Q12959): 4.04 | pKd (DLG1_3, Q12959): 4.08 | pKd (DLG3_1, Q92796): below the threshold | pKd (DLG4_2, P78352): 4.56 | pKd (FRMPD1, Q5SYB0): below the threshold | pKd (FRMPD2_1, Q68DX3): below the threshold | pKd (FRMPD2_3, Q68DX3): below the threshold | pKd (GRASP, Q7Z6J2): below the threshold | pKd (HTRA1, Q92743): below the threshold | pKd (HTRA4, P83105): below the threshold | pKd (Inadl_10, Q8NI35): below the threshold | pKd (Inadl_5, Q8NI35): below the threshold | pKd (LDB3, O75112): below the threshold | pKd (LIN7A, O14910): below the threshold | pKd (LNX2_3, Q8N448): below the threshold | pKd (MPP6, Q9NZW5): below the threshold | pKd (NHERF3_4, Q5T2W1): below the threshold | pKd (NOS1, P29475): 3.53 | pKd (PARD3B_1, Q8TEW8): below the threshold | pKd (PARD3_3, Q8TEW0): below the threshold | pKd (PDZD2_2, O15018): 4.26 | pKd (SCRIB_1, Q14160): 3.83 | pKd (SNTB1, Q13884): 3.86 | pKd (TJP1_3, Q07157): below the threshold
B1: KCNJ12, Q14500 (peptide)
chain: QRPYRRESEI

pKd (APBA2_1, Q99767): below the threshold | pKd (CARD11, Q9BXL7): below the threshold | pKd (DLG1_1, Q12959): 4.76 | pKd (DLG1_3, Q12959): 4.92 | pKd (DLG3_1, Q92796): 4.13 | pKd (DLG4_2, P78352): 4.85 | pKd (FRMPD1, Q5SYB0): below the threshold | pKd (FRMPD2_1, Q68DX3): below the threshold | pKd (FRMPD2_3, Q68DX3): below the threshold | pKd (GRASP, Q7Z6J2): below the threshold | pKd (HTRA1, Q92743): below the threshold | pKd (HTRA4, P83105): below the threshold | pKd (Inadl_10, Q8NI35): below the threshold | pKd (Inadl_5, Q8NI35): below the threshold | pKd (LDB3, O75112): below the threshold | pKd (LIN7A, O14910): below the threshold | pKd (LNX2_3, Q8N448): below the threshold | pKd (MPP6, Q9NZW5): below the threshold | pKd (NHERF3_4, Q5T2W1): below the threshold | pKd (NOS1, P29475): 3.88 | pKd (PARD3B_1, Q8TEW8): below the threshold | pKd (PARD3_3, Q8TEW0): below the threshold | pKd (PDZD2_2, O15018): 4.12 | pKd (SCRIB_1, Q14160): 4.45 | pKd (SNTB1, Q13884): 4.79 | pKd (TJP1_3, Q07157): below the threshold
B2: ARHGEF26, Q96DR7 (peptide)
chain: GRLLGLETNV
